Data from the supplement of paper PMC5998384.

Legend:
HeLa Kyoto [1] = experiment: thermal stability score vs G1/S (z-score of summed log2 fold changes over temperatures); higher = more thermally stable than in G1/S
HeLa Kyoto [2] = experiment: melting temperature (median over replicates), in situ; higher = more thermally stable
[3] = cell cycle stage: early G1 (4.5 h after nocodazole release)
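Wherever melting temperature (median over replicates), in situ is given: HeLa Kyoto cells synchronized by double thymidine or nocodazole block, proteins quantified by TMT10plex mass spectrometry, three independent biological replicates.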
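Wherever thermal stability score vs G1/S (z-score of summed log2 fold changes over temperatures) is given: synchronized HeLa Kyoto cells, proteins quantified by TMT10plex mass spectrometry, three biological replicates, mitosis taken 0.5 h after nocodazole release, G1/S directly after double thymidine block.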

Sequence	thermal stability score (HeLa Kyoto [1]; [3])	thermal stability score (HeLa Kyoto [1]; cell cycle stage: mitosis)	melting temperature (HeLa Kyoto [2]; cell cycle stage: G1/S)	melting temperature (HeLa Kyoto [2]; cell cycle stage: mitosis)
MDSFNYTTPDYGHYDDKDTLDLNTPVDKTSNTLRVPDILALVIFAVVFLVGVLGNALVVWVTAFEAKRTINAIWFLNLAVADFLSCLALPILFTSIVQHHHWPFGGAACSILPSLILLNMYASILLLATISADRFLLVFKPIWCQNFRGAGLAWIACAVAWGLALLLTIPSFLYRVVREEYFPPKVLCGVDYSHDKRRERAVAIVRLVLGFLWPLLTLTICYTFILLRTWSRRATRSTKTLKVVVAVVASFFIFWLPYQVTGIMMSFLEPSSPTFLLLKKLDSLCVSFAYINCCINPIIYVVAGQGFQGRLRKSLPSLLRNVLTEESVVRESKSFTRSTVDTMAQKTQAV [C5AR1]	-2.16	-2.08	57.8 °C	57.4 °C
MEEHGVTQTEHMATIEAHAVAQQVQQVHVATYTEHSMLSADEDSPSSPEDTSYDDSDILNSTAADEVTAHLAAAGPVGMAAAAAVATGKKRKRPHVFESNPSIRKRQQTRLLRKLRATLDEYTTRVGQQAIVLCISPSKPNPVFKVFGAAPLENVVRKYKSMILEDLESALAEHAPAPQEVNSELPPLTIDGIPVSVDKMTQAQLRAFIPEMLKYSTGRGKPGWGKESCKPIWWPEDIPWANVRSDVRTEEQKQRVSWTQALRTIVKNCYKQHGREDLLYAFEDQQTQTQATATHSIAHLVPSQTVVQTFSNPDGTVSLIQVGTGATVATLADASELPTTVTVAQVNYSAVADGEVEQNWATLQGGEMTIQTTQASEATQAVASLAEAAVAASQEMQQGATVTMALNSEAAAHAVATLAEATLQGGGQIVLSGETAAAVGALTGVQDANGLVQIPVSMYQTVVTSLAQGNGPVQVAMAPVTTRISDSAVTMDGQAVEVVTLEQ [NRF1]	-0.324	0.518		51.4 °C
MDGPVAEHAKQEPFHVVTPLLESWALSQVAGMPVFLKCENVQPSGSFKIRGIGHFCQEMAKKGCRHLVCSSGGNAGIAAAYAARKLGIPATIVLPESTSLQVVQRLQGEGAEVQLTGKVWDEANLRAQELAKRDGWENVPPFDHPLIWKGHASLVQELKAVLRTPPGALVLAVGGGGLLAGVVAGLLEVGWQHVPIIAMETHGAHCFNAAITAGKLVTLPDITSVAKSLGAKTVAARALECMQVCKIHSEVVEDTEAVSAVQQLLDDERMLVEPACGAALAAIYSGLLRRLQAEGCLPPSLTSVVVIVCGGNNINSRELQALKTHLGQV [SDSL]	-3.07	-2.65	55.1 °C	57.9 °C
MATRRLTDAFLLLRNNSIQNRQLLAEQVSSHITSSPLHSRSIAAELDELADDRMALVSGISLDPEAAIGVTKRPPPKWVDGVDEIQYDVGRIKQKMKELASLHDKHLNRPTLDDSSEEEHAIEITTQEITQLFHRCQRAVQALPSRARACSEQEGRLLGNVVASLAQALQELSTSFRHAQSGYLKRMKNREERSQHFFDTSVPLMDDGDDNTLYHRGFTEDQLVLVEQNTLMVEEREREIRQIVQSISDLNEIFRDLGAMIVEQGTVLDRIDYNVEQSCIKTEDGLKQLHKAEQYQKKNRKMLVILILFVIIIVLIVVLVGVKSR [STX16]	-1.14	-0.879	51 °C	49.8 °C
MPKNKKRNTPHRGSSAGGGGSGAAAATAATAGGQHRNVQPFSDEDASIETMSHCSGYSDPSSFAEDGPEVLDEEGTQEDLEYKLKGLIDLTLDKSAKTRQAALEGIKNALASKMLYEFILERRMTLTDSIERCLKKGKSDEQRAAAALASVLCIQLGPGIESEEILKTLGPILKKIICDGSASMQARQTCATCFGVCCFIATDDITELYSTLECLENIFTKSYLKEKDTTVICSTPNTVLHISSLLAWTLLLTICPINEVKKKLEMHFHKLPSLLSCDDVNMRIAAGESLALLFELARGIESDFFYEDMESLTQMLRALATDGNKHRAKVDKRKQRSVFRDVLRAVEERDFPTETIKFGPERMYIDCWVKKHTYDTFKEVLGSGMQYHLQSNEFLRNVFELGPPVMLDAATLKTMKISRFERHLYNSAAFKARTKARSKCRDKRADVGEFF [IFRD1]	0.75	1.11	56.4 °C	
